Source: patent US20110182814A1 (GENERAL HOSPITAL, published 2011)
Ends that are not written are not given here.

Legend:
[1] = target: human plectin-1 (of human PDAC cell lines) (human, UniProt Q15149 1-4684); assay: flow cytometry, FITC-labelled phage on PDAC cell lines, average over lines, reference is the FITC-labelled unrelated phage clone
Protocol: (§1) Mouse Pancreatic ductal adenocarcinoma (PDAC) cells, human PDAC cells (i.e. MNA, 8988, SW1990, PaCa-2, ASPC), normal human ductal cells and normal pancreatic cells were incubated with 1 mM (FITC) FITC-labeled phage clone 27 or unrelated phage clone (amino acid sequence SNLHPSD, negative control (SEQ ID NO:XX)) for 1 hour at 37° C., washed 3× with DPBS and visualized by fluorescent microscopy (Nikon Eclipse TE2000-S, Insight QE, 40× objective). The cells were then harvested by incubation with trypsin, centrifuged, and analyzed (10,000 cells/sample) by flow cytometry on a Beckton Dickinson FACSCalibur (San Jose, Calif.). […] Mean fluorescence was plotted against cell number to show relative uptake between cell types.
The specificity of Clone 27 for human PDAC cells was evaluated as described in this example. Clone 27 and an unrelated phage clone were labeled with FITC, producing FITC-27 and a FITC-unrelated phage clone (negative control). Mouse PDAC cells as a positive control along with five human PDAC cell lines and with normal human ductal cells were incubated with each type of clone and then uptake of the clone was analyzed via fluorescence-activated cell sorter (FACS).

[2] = target: T1, plectin-1 (mouse, of mouse PDAC cells) (mouse, UniProt Q9QXS1 1-4691); assay: flow cytometry, fluorescein-labelled phage on mouse PDAC cells against normal ductal cells
T1 construct: whole, on cells; On intact cells in the pulldown (photo-crosslink) and in flow cytometry; From cell lysate on a blot in the far western and the western; also called 500 kDa band
T1 sequence (Q9QXS1 whole entry): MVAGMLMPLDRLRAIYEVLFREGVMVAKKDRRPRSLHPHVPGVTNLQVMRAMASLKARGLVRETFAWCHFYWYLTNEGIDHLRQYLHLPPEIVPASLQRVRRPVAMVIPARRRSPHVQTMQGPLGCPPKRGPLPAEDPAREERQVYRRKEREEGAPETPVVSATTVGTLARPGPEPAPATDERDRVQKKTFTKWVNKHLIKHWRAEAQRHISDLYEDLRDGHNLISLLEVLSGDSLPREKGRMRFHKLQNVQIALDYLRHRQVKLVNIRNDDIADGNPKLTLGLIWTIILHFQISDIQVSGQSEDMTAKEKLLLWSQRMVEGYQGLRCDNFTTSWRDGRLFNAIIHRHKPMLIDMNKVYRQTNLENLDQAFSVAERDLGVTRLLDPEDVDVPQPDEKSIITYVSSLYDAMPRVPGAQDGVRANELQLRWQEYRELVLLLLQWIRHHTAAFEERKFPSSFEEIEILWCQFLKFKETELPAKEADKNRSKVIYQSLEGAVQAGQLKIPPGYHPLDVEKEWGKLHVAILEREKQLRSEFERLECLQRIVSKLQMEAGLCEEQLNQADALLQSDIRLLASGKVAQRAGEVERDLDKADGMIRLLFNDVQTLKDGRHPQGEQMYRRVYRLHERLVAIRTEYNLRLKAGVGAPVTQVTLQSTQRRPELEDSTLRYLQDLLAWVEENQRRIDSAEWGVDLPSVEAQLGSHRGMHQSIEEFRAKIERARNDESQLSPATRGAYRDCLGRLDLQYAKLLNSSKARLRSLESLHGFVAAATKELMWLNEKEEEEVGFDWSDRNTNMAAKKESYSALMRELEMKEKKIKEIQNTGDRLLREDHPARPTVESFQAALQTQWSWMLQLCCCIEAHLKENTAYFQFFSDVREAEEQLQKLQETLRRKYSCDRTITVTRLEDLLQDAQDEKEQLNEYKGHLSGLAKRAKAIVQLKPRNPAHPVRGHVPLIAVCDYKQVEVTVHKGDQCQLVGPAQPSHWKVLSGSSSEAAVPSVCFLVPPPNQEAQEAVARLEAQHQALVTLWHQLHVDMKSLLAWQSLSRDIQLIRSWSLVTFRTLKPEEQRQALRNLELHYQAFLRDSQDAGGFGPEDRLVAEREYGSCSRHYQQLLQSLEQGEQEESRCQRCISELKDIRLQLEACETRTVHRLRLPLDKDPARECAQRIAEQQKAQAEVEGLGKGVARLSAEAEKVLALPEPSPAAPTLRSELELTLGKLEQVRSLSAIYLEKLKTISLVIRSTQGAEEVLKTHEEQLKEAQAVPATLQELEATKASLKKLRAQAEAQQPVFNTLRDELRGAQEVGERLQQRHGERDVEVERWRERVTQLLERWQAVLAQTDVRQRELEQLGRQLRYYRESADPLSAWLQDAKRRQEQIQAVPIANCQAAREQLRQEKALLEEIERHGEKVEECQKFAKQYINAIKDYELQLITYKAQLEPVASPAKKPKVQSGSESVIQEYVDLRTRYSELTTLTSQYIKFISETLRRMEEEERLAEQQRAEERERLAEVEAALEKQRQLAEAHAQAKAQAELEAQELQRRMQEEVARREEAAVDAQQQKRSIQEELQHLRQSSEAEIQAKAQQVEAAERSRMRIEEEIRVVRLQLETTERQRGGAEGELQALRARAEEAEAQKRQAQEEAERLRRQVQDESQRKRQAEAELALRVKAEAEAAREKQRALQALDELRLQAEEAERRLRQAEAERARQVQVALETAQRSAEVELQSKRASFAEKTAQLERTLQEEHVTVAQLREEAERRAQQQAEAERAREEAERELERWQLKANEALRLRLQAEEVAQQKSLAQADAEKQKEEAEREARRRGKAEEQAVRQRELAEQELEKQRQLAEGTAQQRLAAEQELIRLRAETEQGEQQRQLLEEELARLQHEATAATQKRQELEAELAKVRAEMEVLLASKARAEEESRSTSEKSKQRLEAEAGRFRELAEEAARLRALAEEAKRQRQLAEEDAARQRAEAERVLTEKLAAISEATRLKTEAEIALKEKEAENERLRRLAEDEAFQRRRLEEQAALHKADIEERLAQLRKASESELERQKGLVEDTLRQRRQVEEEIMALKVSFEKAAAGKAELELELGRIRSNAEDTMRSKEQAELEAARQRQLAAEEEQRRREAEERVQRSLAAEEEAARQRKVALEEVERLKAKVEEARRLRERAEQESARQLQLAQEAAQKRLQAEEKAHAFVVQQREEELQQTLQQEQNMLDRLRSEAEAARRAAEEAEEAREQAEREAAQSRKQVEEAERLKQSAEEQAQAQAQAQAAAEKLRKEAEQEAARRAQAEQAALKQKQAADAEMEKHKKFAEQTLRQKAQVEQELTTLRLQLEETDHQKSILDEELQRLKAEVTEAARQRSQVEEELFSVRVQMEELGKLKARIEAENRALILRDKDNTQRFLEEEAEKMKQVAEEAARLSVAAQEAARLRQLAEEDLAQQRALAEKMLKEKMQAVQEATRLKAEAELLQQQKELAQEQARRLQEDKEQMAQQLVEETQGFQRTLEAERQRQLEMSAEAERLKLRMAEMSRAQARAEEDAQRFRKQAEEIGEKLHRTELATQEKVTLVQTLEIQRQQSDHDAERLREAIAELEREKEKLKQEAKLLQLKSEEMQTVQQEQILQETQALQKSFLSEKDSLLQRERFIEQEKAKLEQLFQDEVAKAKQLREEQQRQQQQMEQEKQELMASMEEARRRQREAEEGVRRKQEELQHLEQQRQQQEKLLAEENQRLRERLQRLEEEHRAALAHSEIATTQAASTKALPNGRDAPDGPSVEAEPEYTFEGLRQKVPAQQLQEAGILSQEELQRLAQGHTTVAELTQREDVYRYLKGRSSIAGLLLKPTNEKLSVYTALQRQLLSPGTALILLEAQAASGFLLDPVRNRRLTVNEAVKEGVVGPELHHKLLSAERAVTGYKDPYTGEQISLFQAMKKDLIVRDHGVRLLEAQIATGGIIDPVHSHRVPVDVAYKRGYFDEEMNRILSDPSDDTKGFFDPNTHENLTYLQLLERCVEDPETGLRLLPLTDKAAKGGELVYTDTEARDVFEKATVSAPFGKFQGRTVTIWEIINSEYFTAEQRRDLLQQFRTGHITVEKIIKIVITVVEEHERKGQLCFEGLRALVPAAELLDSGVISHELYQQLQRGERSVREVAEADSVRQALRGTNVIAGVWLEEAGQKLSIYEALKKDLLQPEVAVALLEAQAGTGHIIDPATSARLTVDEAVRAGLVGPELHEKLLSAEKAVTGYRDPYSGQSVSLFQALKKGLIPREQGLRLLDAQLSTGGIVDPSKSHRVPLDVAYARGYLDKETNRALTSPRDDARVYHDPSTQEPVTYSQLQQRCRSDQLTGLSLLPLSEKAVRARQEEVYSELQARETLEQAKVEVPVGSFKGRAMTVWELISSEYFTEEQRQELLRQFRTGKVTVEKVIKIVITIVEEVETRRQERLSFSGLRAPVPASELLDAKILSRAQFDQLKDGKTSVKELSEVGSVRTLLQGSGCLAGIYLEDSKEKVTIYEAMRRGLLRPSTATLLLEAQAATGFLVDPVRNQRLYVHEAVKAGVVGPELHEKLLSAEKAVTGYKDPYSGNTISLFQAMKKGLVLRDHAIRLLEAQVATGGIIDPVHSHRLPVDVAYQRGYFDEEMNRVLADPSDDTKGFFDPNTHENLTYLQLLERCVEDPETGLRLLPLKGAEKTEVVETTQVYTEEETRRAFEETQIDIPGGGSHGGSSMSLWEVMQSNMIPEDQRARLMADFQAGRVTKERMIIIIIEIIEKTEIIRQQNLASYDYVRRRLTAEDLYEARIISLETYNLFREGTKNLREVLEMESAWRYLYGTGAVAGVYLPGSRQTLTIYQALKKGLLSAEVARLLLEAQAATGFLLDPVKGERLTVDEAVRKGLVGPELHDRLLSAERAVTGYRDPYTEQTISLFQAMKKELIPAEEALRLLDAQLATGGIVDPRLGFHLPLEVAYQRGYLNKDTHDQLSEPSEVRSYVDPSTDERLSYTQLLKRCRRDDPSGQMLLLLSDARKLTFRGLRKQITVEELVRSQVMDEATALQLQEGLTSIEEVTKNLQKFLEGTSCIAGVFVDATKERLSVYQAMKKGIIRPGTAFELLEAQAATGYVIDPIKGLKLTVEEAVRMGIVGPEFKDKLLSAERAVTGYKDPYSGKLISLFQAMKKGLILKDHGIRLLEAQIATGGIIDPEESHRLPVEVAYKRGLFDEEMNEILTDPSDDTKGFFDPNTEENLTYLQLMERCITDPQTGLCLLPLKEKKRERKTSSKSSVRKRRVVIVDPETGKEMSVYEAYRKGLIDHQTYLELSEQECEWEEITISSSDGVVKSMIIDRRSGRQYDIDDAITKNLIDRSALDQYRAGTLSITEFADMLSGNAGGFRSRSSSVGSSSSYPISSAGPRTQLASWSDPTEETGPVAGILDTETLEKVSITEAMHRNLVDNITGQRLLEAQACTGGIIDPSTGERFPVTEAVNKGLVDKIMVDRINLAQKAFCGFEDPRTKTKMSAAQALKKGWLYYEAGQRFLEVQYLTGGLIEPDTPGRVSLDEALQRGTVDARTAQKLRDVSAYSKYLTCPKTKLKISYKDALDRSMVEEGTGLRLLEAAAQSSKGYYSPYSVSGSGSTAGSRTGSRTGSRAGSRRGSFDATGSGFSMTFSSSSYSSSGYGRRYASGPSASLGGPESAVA
Protocol: as §1
Validation of Clone 27 as a PDAC marker (FIG. 1B) was done in experiments described herein, in addition to testing clones 1 (SGVEFLH, SEQ ID NO:4), 9 (SKKDTHH, SEQ ID NO:5), 15 (TMAPSIK, SEQ ID NO:6), 17 (TQHQVTA, SEQ ID NO:7), and 22 (VNDRNVK, SEQ ID NO:8). The phage coat proteins were fluorescein labeled then the extent of phage clone binding and specificity quantified for mouse PDAC and normal ductal cells via flow cytometry (FIG. 1B). […] Phage clone 15 was second in affinity with the remainder having nearly identical specificity.

B1: phage clone 27 displaying the peptide KTLLPTP (SEQ ID NO:1) (peptide)
peptide: KTLLPTP
modifications: also: displayed on M13 phage coat protein, phage labelled with FITC or biotin
notes: Tested as whole labelled phage, not as free peptide; also called FITC-27; PDAC-27; not shown: M13 phage coat protein carrying the 7-mer of the phD7 library (New England Biolabs)
specificity (ratio of clone 27/unrelated clone mean fluorescence) [1]: 141 ratio
specificity over normal ductal cells [2]: 112 fold
